Values of other authors in publication PMC5268426.
Like-named read-outs stand apart in the source and are kept apart here. Values belong to the substance of their own block, whether it stands above or below them.

What was measured:
[1] = target: Pancreatic trypsin inhibitor (PTI) (Bos taurus) (UniProt P00974)
Prostasin (Homo sapiens) = Prostasin (Homo sapiens) (UniProt Q16651)
[2] = target: Pancreatic trypsin inhibitor (PTI) (Bos taurus) (UniProt P00974); remark: listed apart in the source

- Kd [1]: 2000 nM
Substance: Trypsinogen (from UniProt P00760)

- Ki (Prostasin (Homo sapiens)): 5 nM
Substance: HAI-2 (from UniProt O43291)

- Kd [2]: 0.06 pM
Substance: Trypsin (from UniProt P00760)
